This is an account of results in PMC8017925, “Structural basis for differential recognition of phosphohistidine-containing peptides by 1-pHis and 3-pHis monoclonal antibodies” (Proceedings of the National Academy of Sciences of the …, 2021).

Substrate in experiment [1]: SCS peptide, 1-pHis form
In words: BLI; biotinylated pHis peptides (20 nM) on streptavidin biosensors, Fab in solution at varying concentrations; 50 mM Hepes pH 8.0, 150 mM NaCl, 0.05% Tween-20, 0.2% BSA; Octet RED96e; global fit to a 1:1 Langmuir model. (In BLI a coated tip is dipped into the sample, and binding shifts an interference pattern.)

In experiment [2] the target is T1, Common-His peptide, 1-pHis form.
T1 sequence (peptide, biotin on the N-terminus; C-terminal amide; 1-phosphohistidine at position 5): GEQLHDLNA
Described as above.

The target of experiment [3] is T2, ACLY peptide, 1-pHis form.
T2 sequence (peptide, biotin on the N-terminus; C-terminal amide; 1-phosphohistidine at position 5): VQFGHAGAC
Described as above.

Experiment [4] deals with T3, NM23 peptide, 1-pHis form.
T3 sequence (peptide, biotin on the N-terminus; C-terminal amide; 1-phosphohistidine at position 5): RNIIHGSDS
The experiment is described as above.

Experiment [5] relates to ACLYana-1-pHis peptide (AGAG-1-pHis-AGAG). Put plainly: BLI binding kinetics of 1-pHis Fabs with affinity-purified pHis peptide. Conditions: for ka / kd / Kd: BLI, 1:1 Langmuir global fit, triplicate; for ka / kd: affinity-purified ACLYana-1-pHis peptide; for Kd: ACLYana phosphorylated with phosphoramidate (8 h, 23 °C), 1-pHis isomer affinity-purified on 1-pHis IgG column, immobilized on streptavidin biosensors, Hepes pH 8.0; for affinity to 1-pHis peptides, times weaker than the 1-pTza peptides: ratio of BLI KD, 1-pHis versus 1-pTza peptide. As to the method: (§1) Biolayer interferometry (BLI) studies were performed to determine the relative affinity of pHis Fabs to in situ phosphorylated His peptides versus the phosphomimetic substrates. The N-terminally biotinylated peptides were immobilized on streptavidin biosensors and the rate of association (ka) and dissociation (kd) were determined by varying the pHis Fab concentration. Equilibrium dissociation constants (KD) were determined by fitting the experimental data to a 1:1 Langmuir binding model. ACLYana-1-pTza and ACLYana-3-pTza peptides were used to determine affinity to 1-pHis and 3-pHis Fabs, respectively (Fig. 3 A–E and Table 1). […] The two isomers were separated from each other by passing the reaction through affinity columns containing 1-pHis mAbs using SC1-1 or SC50-3 IgGs or 3-pHis mAbs using SC39-4, SC44-8, and SC56-2 IgGs. The eluates thus contained either predominantly 1-pHis or 3-pHis peptides. These peptides were used to determine the affinity to their respective isomer class of pHis Fabs (Fig. 3 F–J, Table 1, and SI Appendix, Fig. S5). […] This experimental observation is well supported by the higher number of hydrogen bonds that support the SC44-8:3-pTza interaction compared to other pHis Fabs (SI Appendix, Table S5). […] There are at least three reasons for the lower affinity of the mAbs for pHis peptides compared to pTza peptides: The continuous hydrolysis of phosphate from the pHis peptides during the course of the experiment (SI Appendix, Fig. S6), a reduction in the number of hydrogen bond interactions due to one less nitrogen in the imidazole ring compared to triazolyl ring (Fig. 4 and SI Appendix, Fig. S8), and inherently different electronic properties of the imidazole and triazolyl rings in His and Tza, respectively ([20]).
(§2) Fig. 3. Binding kinetics of pHis Fabs with cognate pTza and pHis peptides. BLI studies of immobilized peptides (ACLYana-1/3-pTza and phosphorylated ACLYana) with varying concentrations of the pHis Fabs were carried out in triplicate on an Octet Red96e instrument (FortéBio). SC1-1 (A) and SC50-3 (B) pHis Fab interaction with their ACLYana-1-pTza peptides. SC39-4 (C), SC44-8 (D), and SC56-2 (E) pHis Fabs interactions with ACLYana-3-pTza peptides. SC1-1 (F), SC50-3 (G), SC39-4 (H), SC44-8 (I), and SC56-2 (J) pHis Fabs interactions with their affinity-purified ACLYana-pHis peptides are represented, Right. The experimental data are represented in the black dashed lines and the nonlinear least-squares fitting was represented in the red continuous lines. The χ^2 for the goodness of fit is under 1.0 for the all the plots.
(§3) The binding kinetics of pHis Fabs with the peptides (pTza and pHis) were evaluated with an Octet RED96e (FortéBio). Streptavidin-coated biosensors (FortéBio) were presoaked in buffer containing 50 mM Hepes pH 8.0, 150 mM NaCl, 0.05% Tween-20, and 0.2% BSA for 15 min. The biotinylated pTza peptides or pHis peptides (20 nM) with and without phosphoramidate treatment were coated onto these streptavidin biosensors and analyzed for their binding to varying concentrations of the pHis Fabs with an association time of 120 s and dissociation time of 200 s. The entire set of experiments was repeated three times. The data were analyzed using the Octet software (FortéBio) and the rates of association and dissociation were obtained by global fitting data to the 1:1 Langmuir interaction model.
Supplementary methods and materials
Peptide Synthesis. Peptides used for the crystallization were synthesized at Sanofi as described in Fuhs et al. (1). Peptides used in the DSF and BLI experiments were synthesized by the Salk Peptide Synthesis Core. These peptides were N-terminally biotinylated and C-terminally amidated. They were synthesized using standard Fmoc chemistry on a Gyros Protein Technologies Tribute peptide synthesizer with UV monitoring. Following the deprotection, peptides were analyzed by mass spectrometry and analytical HPLC by the Proteomics Core at […]
Salk. […]

For experiment [6], the target named is ACLYana-1-pTza peptide (AGAG-1-pTza-AGAG). Put plainly: BLI binding kinetics of 1-pHis Fabs with cognate pTza peptide. Conditions: triplicate; for Kd: BLI Octet RED96e, N-terminally biotinylated peptide (20 nM) on streptavidin biosensors, varying Fab concentration, 50 mM Hepes pH 8.0, 150 mM NaCl, 0.05% Tween-20, 0.2% BSA, association 120 s, dissociation 200 s, global fit 1:1 Langmuir; for ka / kd: BLI, immobilized biotinylated ACLYana-1-pTza, 1:1 Langmuir global fit. As to the method: as §1, §2, §3

Experiment [7] addresses T4, ACLYana-1-pHis peptide (AGAG-1-pHis-AGAG).
T4 sequence (peptide, 1-phosphohistidine at position 5; biotin on the N-terminus): AGAGHAGAG
In words: BLI; N-terminally biotinylated peptides (20 nM) on streptavidin biosensors, varying concentrations of Fab in solution; 50 mM Hepes pH 8.0, 150 mM NaCl, 0.05% Tween-20, 0.2% BSA; association 120 s, dissociation 200 s; global fit to a 1:1 Langmuir model; Octet RED96e; in triplicate.

In experiment [8] the target is ACLYana-1-pTza peptide (AGAG-1-pTza-AGAG). The experiment is described as above.

B1: SC50-3 Fab (Fab, V domains shown)
VH: QSVKESEGGLFKPTDTLTLTCTASGFSLNGYGVIWVRQAPGKGLEWIGSAGAYGRIYYPNWARSRATITRNTNLNTVSLKMTSLTAADTATYFCARRTNVSTSVGFDSWGPGTLVTVSS
VL: DMTQTPSSKSVPVGDTVTINCQASESVYSNNRLSWFQQKPGQPPKLLIYLVSTLASGVPSRFKGSGSGTQFTLTISDVVCDDAATYYCVGYKSSTTDGLAFGGGTEVVVK
In general, Kd refers to a measure of binding affinity in units of concentration. In general, koff refers to a measure of how fast the partners let go of each other. One may read the kon as the second-order rate constant of association. As to B1, the equilibrium dissociation constant (Kd) in experiment [1] was determined as 411 nM; in experiment [2], 336 nM; in experiment [3], 194 nM; in experiment [4], 362 nM. The koff in experiment [1] was 0.0147 s⁻¹; in experiment [2], 0.0243 s⁻¹; in experiment [3], 0.0247 s⁻¹; in experiment [4] it was 0.0176 s⁻¹. Further, the on-rate constant (kon) in experiment [1] was 35800 M⁻¹ s⁻¹; in experiment [2], 72200 M⁻¹ s⁻¹; in experiment [3], 127000 M⁻¹ s⁻¹; in experiment [4] it was 48500 M⁻¹ s⁻¹.

B2: SC50-3: Fab of rabbit 1-pHis monoclonal antibody, expressed with SC50-3 heavy chain and SC1-1 light chain (antibody, V domains shown)
VH: QSVKESEGGLFKPTDTLTLTCTASGFSLNGYGVIWVRQAPGKGLEWIGSAGAYGRIYYPNWARSRATITRNTNLNTVSLKMTSLTAADTATYFCARRTNVSTSVGFDSWGPGTLVTVSS
VL: DMTQTPSSKSVPVGDTVTINCQASESVYSNNRLSWFQQKPGQPPKLLIYLVSTLASGVPSRFKGSGSGTQFTLTISDVVCDDAATYYCVGYKSSTTDGLAFGGGTEVVVK
For B2, in experiment [5], the ka amounted to 175000 ± 1010 M⁻¹ s⁻¹; the kd worked out at 0.00494 ± 1.06e-05 s⁻¹; binding was characterised by a dissociation constant (Kd) of 28.3 nM; the “affinity to 1-pHis peptides, times weaker than the 1-pTza peptides” value was “two to four times weaker”. In experiment [6], this molecule showed an equilibrium dissociation constant (Kd) of 16 nM, a ka of 85100 ± 303 M⁻¹ s⁻¹ and a kd of 0.00136 ± 3.19e-06 s⁻¹.

B3: SC50-3 Fab (SC50-3 heavy chain with SC1-1 light chain) (Fab, V domains shown)
VH: QSVKESEGGLFKPTDTLTLTCTASGFSLNGYGVIWVRQAPGKGLEWIGSAGAYGRIYYPNWARSRATITRNTNLNTVSLKMTSLTAADTATYFCARRTNVSTSVGFDSWGPGTLVTVSS
VL: DMTQTPSSKSVPVGDTVTINCQASESVYSNNRLSWFQQKPGQPPKLLIYLVSTLASGVPSRFKGSGSGTQFTLTISDVVCDDAATYYCVGYKSSTTDGLAFGGGTEVVVK
In experiment [7], B3 displayed an equilibrium dissociation constant (Kd) of 28.3 nM, a koff of 0.00494 s⁻¹ and a kon of 175000 M⁻¹ s⁻¹. Also, in experiment [8], the Kd was determined as 16 nM, the koff was 0.00136 s⁻¹ and the association rate constant (kon) is 85100 M⁻¹ s⁻¹.

B4: SC1-1: Fab of rabbit monoclonal antibody that recognizes 1-pHis (antibody, V domains shown)
VH: QSVEESEGGLFKPTDTLTLTCTASGFSLSGHGVIWVRQAPGKGLEWIGSAGAYGRIYYASWAKSRSTITRNTNLNTVTLKMTSLTAADTATYFCARRSDVGTSVGFDSWGPGTLVTISS
VL: DMTQTPSSKSVPVGDTVTINCQASESVYSNNRLSWFQQKPGQPPKLLIYLVSTLASGVPSRFKGSGSGTQFTLTISDVVCDDAATYYCVGYKSSTTDGLAFGGGTEVVVK
Take B4: in experiment [5], the ka amounted to 97300 ± 551 M⁻¹ s⁻¹; the kd came out at 0.00925 ± 1.33e-05 s⁻¹; the Kd stood at 95.1 nM; the “affinity to 1-pHis peptides, times weaker than the 1-pTza peptides” value is listed as “two to four times weaker”. In experiment [6], this molecule displayed a Kd of 24.8 nM, a ka of 81300 ± 347 M⁻¹ s⁻¹ and a kd of 0.00199 ± 3.19e-06 s⁻¹.

B5: SC1-1 Fab (Fab, V domains shown)
VH: QSVEESEGGLFKPTDTLTLTCTASGFSLSGHGVIWVRQAPGKGLEWIGSAGAYGRIYYASWAKSRSTITRNTNLNTVTLKMTSLTAADTATYFCARRSDVGTSVGFDSWGPGTLVTISS
VL: DMTQTPSSKSVPVGDTVTINCQASESVYSNNRLSWFQQKPGQPPKLLIYLVSTLASGVPSRFKGSGSGTQFTLTISDVVCDDAATYYCVGYKSSTTDGLAFGGGTEVVVK
In experiment [7], B5 returned a Kd of 95.1 nM, a koff of 0.00925 s⁻¹ and a kon of 97300 M⁻¹ s⁻¹. In experiment [8], the Kd stood at 24.8 nM, the koff came out at 0.00199 s⁻¹ and the kon came out at 81300 M⁻¹ s⁻¹.
